The target in data set [1] is T1, Scr (Sex combs reduced) (Bombyx mori, UniProt Q9XZR4 1-356). The experiment in a line: EMSA; dose-dependent; competed by unlabeled probe; EMSA: 0.1-1 ug protein, 5 uM labeled probe, 15 uL with 3 uL 5x binding buffer (Beyotime, composition not given), 25 C, 20 + 20 min; 5% PAGE in 1x TBE (45 mM Tris-borate, 1 mM EDTA, pH 8.3). The settings on record: protein: recombinant; tags: His-SUMO (N-terminal, pCold-SUMO); label: 5'-Cy3; blunt.

The target in data set [2] is T1, Scr (Sex combs reduced). The experiment in a line: competition; unlabeled mutant, 5-50x, against labeled N3; EMSA: 0.1-1 ug protein, 5 uM labeled probe, 15 uL with 3 uL 5x binding buffer (Beyotime, composition not given), 25 C, 20 + 20 min; 5% PAGE in 1x TBE (45 mM Tris-borate, 1 mM EDTA, pH 8.3). The settings on record: protein: recombinant; tags: His-SUMO (N-terminal, pCold-SUMO); label: none; blunt.

The target of data set [3] is T1, Scr (Sex combs reduced). As to the kind of experiment: competition; unlabeled mutant, 5-50x, against labeled N1; EMSA: 0.1-1 ug protein, 5 uM labeled probe, 15 uL with 3 uL 5x binding buffer (Beyotime, composition not given), 25 C, 20 + 20 min; 5% PAGE in 1x TBE (45 mM Tris-borate, 1 mM EDTA, pH 8.3). The settings on record: protein: recombinant; tags: His-SUMO (N-terminal, pCold-SUMO); label: none; blunt.

The target in data set [4] is T1, Scr (Sex combs reduced). The experiment in a line: competition; unlabeled mutant, 5-50x, against labeled N5; EMSA: 0.1-1 ug protein, 5 uM labeled probe, 15 uL with 3 uL 5x binding buffer (Beyotime, composition not given), 25 C, 20 + 20 min; 5% PAGE in 1x TBE (45 mM Tris-borate, 1 mM EDTA, pH 8.3). The settings on record: protein: recombinant; tags: His-SUMO (N-terminal, pCold-SUMO); label: none; blunt.

This is an account of results in publication PMC4661804, “Homeodomain Protein Scr Regulates the Transcription of Genes Involved in Juvenile Hormone Biosynthesis in the Silkworm”.

T1 sequence (Q9XZR4 entry or part of it): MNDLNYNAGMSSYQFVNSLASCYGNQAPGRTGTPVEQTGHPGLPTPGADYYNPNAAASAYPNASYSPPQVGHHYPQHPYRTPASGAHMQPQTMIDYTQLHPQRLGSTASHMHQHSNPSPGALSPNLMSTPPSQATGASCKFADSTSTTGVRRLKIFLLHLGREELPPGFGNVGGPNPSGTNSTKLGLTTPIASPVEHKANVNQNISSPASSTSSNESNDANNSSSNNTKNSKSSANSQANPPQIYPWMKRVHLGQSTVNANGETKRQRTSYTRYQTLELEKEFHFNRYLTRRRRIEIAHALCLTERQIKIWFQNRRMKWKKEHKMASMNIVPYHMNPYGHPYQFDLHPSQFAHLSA

B1: FPPS2 probe (dsDNA)
DNA 1: TCGCAAGTGAAAACAATTAATTCGCAATCGGTTCA
DNA 2: TGAACCGATTGCGAATTAATTGTTTTCACTTGCGA
Regarding B1, the binding result in the data set with Scr (Sex combs reduced) [1] was “binds”.

B2: FPPS2 mutant probe (dsDNA)
DNA 1: TCGCAAGTGAAAACACCCCCTTCGCAATCGGTTCA
DNA 2: TGAACCGATTGCGAAGGGGGTGTTTTCACTTGCGA
In the case of B2, the binding result with Scr (Sex combs reduced) [2] was “no binding”.

B3: Allatotropin probe (dsDNA)
DNA 1: CCATAGGTTTGTAGATAATTAGCGTAGCACGCTGTA
DNA 2: TACAGCGTGCTACGCTAATTATCTACAAACCTATGG
Turning to B3, in the data set with Scr (Sex combs reduced) [1], the binding result is reported as “binds”.

B4: Allatotropin mutant probe (dsDNA)
DNA 1: CCATAGGTTTGTAGACCCCCAGCGTAGCACGCTGTA
DNA 2: TACAGCGTGCTACGCTGGGGGTCTACAAACCTATGG
As for B4, the binding result with Scr (Sex combs reduced) [3] is “no binding”.

B5: JHAMT probe (dsDNA)
DNA 1: ATGGCTAATTTTTTTAATGAATTAAAAGAAC
DNA 2: GTTCTTTTAATTCATTAAAAAAATTAGCCAT
As for B5, in the data set with Scr (Sex combs reduced) [1], the binding result is recorded as “binds”.

B6: JHAMT mutant probe (dsDNA)
DNA 1: ATGGCTAATTTTTTCCCCGAATTAAAAGAAC
DNA 2: GTTCTTTTAATTCGGGGAAAAAATTAGCCAT
Consider B6, for which the binding result with Scr (Sex combs reduced) [4] is given as “no binding”.
